From the supplement of paper PMC5998384 come the findings set out here.

Series [1] concerns HeLa Kyoto. The series is described as follows: thermal stability score vs G1/S (z-score of summed log2 fold changes over temperatures); higher = more thermally stable than in G1/S.
The test system of series [2] is HeLa Kyoto. The series is described as follows: melting temperature (median over replicates), in situ; higher = more thermally stable.
Series [3] relates to HeLa Kyoto. The series is described as follows: solubility change mitosis vs G1/S (difference of NP-40 vs SDS log2 ratios) (log2 ratio difference); higher = more soluble in mitosis.
Series [4] concerns HeLa Kyoto. In words: solubility in G1/S (NP-40 vs SDS abundance) (log2 ratio); higher = more soluble. The settings on record: cell cycle stage: G1/S.
[5] abbreviates: cell cycle stage: early G1 (4.5 h after nocodazole release).
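For melting temperature (median over replicates), in situ in this document: HeLa Kyoto cells synchronized by double thymidine or nocodazole block, proteins quantified by TMT10plex mass spectrometry, three independent biological replicates.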
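For solubility change mitosis vs G1/S (difference of NP-40 vs SDS log2 ratios) in this document: synchronized HeLa Kyoto cells (double thymidine block for G1/S, nocodazole release for mitosis), protein amounts in NP-40 versus SDS lysates quantified by mass spectrometry, three biological replicates.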
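For solubility in G1/S (NP-40 vs SDS abundance) in this document: HeLa Kyoto cells arrested at G1/S by double thymidine block, proteins quantified by TMT10plex mass spectrometry in mild NP-40 versus SDS extracts, three biological replicates.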
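For thermal stability score vs G1/S (z-score of summed log2 fold changes over temperatures) in this document: synchronized HeLa Kyoto cells, proteins quantified by TMT10plex mass spectrometry, three biological replicates, mitosis taken 0.5 h after nocodazole release, G1/S directly after double thymidine block.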

With “MAAQCVRLARRSLPALALSLRPSPRLLCTATKQKNSGQNLEEDMGQSEQKADPPATEKTLLEEKVKLEEQLKETVEKYKRALADTENLRQRSQKLVEEAKLYGIQAFCKDLLEVADVLEKATQCVPKEEIKDDNPHLKNLYEGLVMTEVQIQKVFTKHGLLKLNPVGAKFDPYEHEALFHTPVEGKEPGTVALVSKVGYKLHGRTLRPALVGVVKEA [GRPEL1]”, the thermal stability score with HeLa Kyoto [1] (setting [5]) is -2.01; in the series with HeLa Kyoto [1] (cell cycle stage: mitosis), -2.29. For the same sequence, the melting temperature amounted to 51.2 °C in the series with HeLa Kyoto [2] (cell cycle stage: G1/S) and 51 °C in the series with HeLa Kyoto [2] (cell cycle stage: mitosis). For the same sequence, the “solubility change mitosis (log2)” value in the series on HeLa Kyoto [3] was found to be 0.707. Further, in the series on HeLa Kyoto [4], the “solubility in G1/S (log2)” value was 0.661.
“MAAQRPLRVLCLAGFRQSERGFREKTGALRKALRGRAELVCLSGPHPVPDPPGPEGARSDFGSCPPEEQPRGWWFSEQEADVFSALEEPAVCRGLEESLGMVAQALNRLGPFDGLLGFSQGAALAALVCALGQAGDPRFPLPRFILLVSGFCPRGIGFKESILQRPLSLPSLHVFGDTDKVIPSQESVQLASQFPGAITLTHSGGHFIPAAAPQRQAYLKFLDQFAE [OVCA2]”: the values for the thermal stability score with HeLa Kyoto [1] (setting [5]) and in the series on HeLa Kyoto [1] (cell cycle stage: mitosis) were -1.18 and -0.0698, respectively. Further, the melting temperature turned out to be 49.8 °C in the series with HeLa Kyoto [2] (cell cycle stage: G1/S) and 51.5 °C with HeLa Kyoto [2] (cell cycle stage: mitosis). In addition, the “solubility change mitosis (log2)” value in the series on HeLa Kyoto [3] amounted to 0.0456. Also, the “solubility in G1/S (log2)” value in the series on HeLa Kyoto [4] worked out at 0.171.
As to “MAAQRRSLLQSEQQPSWTDDLPLCHLSGVGSASNRSYSADGKGTESHPPEDSWLKFRSENNCFLYGVFNGYDGNRVTNFVAQRLSAELLLGQLNAEHAEADVRRVLLQAFDVVERSFLESIDDALAEKASLQSQLPEGVPQHQLPPQYQKILERLKTLEREISGGAMAVVAVLLNNKLYVANVGTNRALLCKSTVDGLQVTQLNVDHTTENEDELFRLSQLGLDAGKIKQVGIICGQESTRRIGDYKVKYGYTDIDLLSAAKSKPIIAEPEIHGAQPLDGVTGFLVLMSEGLYKALEAAHGPGQANQEIAAMIDTEFAKQTSLDAVAQAVVDRVKRIHSDTFASGGERARFCPRHEDMTLLVRNFGYPLGEMSQPTPSPAPAAGGRVYPVSVPYSSAQSTSKTSVTLSLVMPSQGQMVNGAHSASTLDEATPTLTNQSPTLTLQSTNTHTQSSSSSSDGGLFRSRPAHSLPPGEDGRVEPYVDFAEFYRLWSVDHGEQSVVTAP [TAB1]”, the values for the thermal stability score in the series with HeLa Kyoto [1] (setting [5]) and with HeLa Kyoto [1] (cell cycle stage: mitosis) were -0.0541 and 1.34, respectively. For the same sequence, the melting temperature came to 49.4 °C in the series with HeLa Kyoto [2] (cell cycle stage: G1/S) and 49.7 °C in the series on HeLa Kyoto [2] (cell cycle stage: mitosis). The “solubility change mitosis (log2)” value in the series with HeLa Kyoto [3] is -0.0812. Also, the “solubility in G1/S (log2)” value in the series with HeLa Kyoto [4] worked out at 0.302.
Regarding “MAARAGFQSVAPSGGAGASGGAGAAAALGPGGTPGPPVRMGPAPGQGLYRSPMPGAAYPRPGMLPGSRMTPQGPSMGPPGYGGNPSVRPGLAQSGMDQSRKRPAPQQIQQVQQQAVQNRNHNAKKKKMADKILPQRIRELVPESQAYMDLLAFERKLDQTIMRKRLDIQEALKRPIKQKRKLRIFISNTFNPAKSDAEDGEGTVASWELRVEGRLLEDSALSKYDATKQKRKFSSFFKSLVIELDKDLYGPDNHLVEWHRTATTQETDGFQVKRPGDVNVRCTVLLMLDYQPPQFKLDPRLARLLGIHTQTRPVIIQALWQYIKTHKLQDPHEREFVICDKYLQQIFESQRMKFSEIPQRLHALLMPPEPIIINHVISVDPNDQKKTACYDIDVEVDDTLKTQMNSFLLSTASQQEIATLDNKIHETIETINQLKTQREFMLSFARDPQGFINDWLQSQCRDLKTMTDVVGNPEEERRAEFYFQPWAQEAVCRYFYSKVQQRRQELEQALGIRNT [SMARCD1]”, the thermal stability score in the series on HeLa Kyoto [1] (setting [5]) came to 0.481; in the series with HeLa Kyoto [1] (cell cycle stage: mitosis) it was 1.5. For the same sequence, the melting temperature in the series on HeLa Kyoto [2] (cell cycle stage: G1/S) was found to be 47.4 °C; in the series on HeLa Kyoto [2] (cell cycle stage: mitosis), 49.3 °C. In addition, the “solubility change mitosis (log2)” value in the series with HeLa Kyoto [3] is -0.0288. The “solubility in G1/S (log2)” value with HeLa Kyoto [4] amounted to 0.347.
In the case of “MAARCSTRWLLVVVGTPRLPAISGRGARPPREGVVGAWLSRKLSVPAFASSLTSCGPRALLTLRPGVSLTGTKHNPFICTASFHTSAPLAKEDYYQILGVPRNASQKEIKKAYYQLAKKYHPDTNKDDPKAKEKFSQLAEAYEVLSDEVKRKQYDAYGSAGFDPGASGSQHSYWKGGPTVDPEELFRKIFGEFSSSSFGDFQTVFDQPQEYFMELTFNQAAKGVNKEFTVNIMDTCERCNGKGNEPGTKVQHCHYCGGSGMETINTGPFVMRSTCRRCGGRGSIIISPCVVCRGAGQAKQKKRVMIPVPAGVEDGQTVRMPVGKREIFITFRVQKSPVFRRDGADIHSDLFISIAQALLGGTARAQGLYETINVTIPPGTQTDQKIRMGGKGIPRINSYGYGDHYIHIKIRVPKRLTSRQQSLILSYAEDETDVEGTVNGVTLTSSGGSTMDSSAGSKARREAGEDEEGFLSKLKKMFTS [DNAJA3]”, the thermal stability score is -0.681 in the series on HeLa Kyoto [1] (setting [5]) and 0.373 in the series with HeLa Kyoto [1] (cell cycle stage: mitosis). The values for the melting temperature with HeLa Kyoto [2] (cell cycle stage: G1/S) and in the series with HeLa Kyoto [2] (cell cycle stage: mitosis) were 48.4 °C and 50.3 °C, respectively. In the series on HeLa Kyoto [3], the “solubility change mitosis (log2)” value is -0.0129. Moreover, the “solubility in G1/S (log2)” value with HeLa Kyoto [4] is -0.186.
In the case of “MAARTVIIDHGSGFLKAGTAGWNEPQMVFPNIVNYLPCKENPGPSYARRRVSLGIDICHPDTFSYPIERGRILNWEGVQYLWSFVLENHRREQEVPPVIITETPLREPADRKKMLEILFELLHVPSVLLADQLQMSLYASGLLTGVVVDSGYGLTRVQPFHQGRPLPASGKTLEFAGQDLSAYLLKSLFKEDCDRRCLFQLETVAVTQMNKCYVPQNLGEALDFRERQQSALDESNTYQLPDGSRVELTPMQRVAPEMFFSPQVFEQPGPSIPRAIVESVESCEISLRPLLVSHVMACGGNTLYPGFTKRLFRELMGDHVSSTKATVWEGSNRNFSVWLGASVVAHLSTYQSEWMSREEYGEHMRM [ACTL8]”, the thermal stability score in the series on HeLa Kyoto [1] (setting [5]) was -0.233; in the series with HeLa Kyoto [1] (cell cycle stage: mitosis) it was -1.1. The figures for the melting temperature with HeLa Kyoto [2] (cell cycle stage: G1/S) and with HeLa Kyoto [2] (cell cycle stage: mitosis) were 52.8 °C and 52.4 °C, respectively. Further, in the series on HeLa Kyoto [3], the “solubility change mitosis (log2)” value stood at 0.0715. The “solubility in G1/S (log2)” value with HeLa Kyoto [4] is -0.19.
Regarding “MAASALYACTKCTQRYPFEELSQGQQLCKECRIAHPIVKCTYCRSEFQQESKTNTICKKCAQNVKQFGTPKPCQYCNIIAAFIGTKCQRCTNSEKKYGPPQTCEQCKQQCAFDRKEEGRRKVDGKLLCWLCTLSYKRVLQKTKEQRKSLGSSHSNSSSSSLTEKDQHHPKHHHHHHHHHHRHSSSHHKISNLSPEEEQGLWKQSHKSSATIQNETPKKKPKLESKPSNGDSSSINQSADSGGTDNFVLISQLKEEVMSLKRLLQQRDQTILEKDKKLTELKADFQYQESNLRTKMNSMEKAHKETVEQLQAKNRELLKQVAALSKGKKFDKSGSILTSP [FAM76B]”, the thermal stability score in the series with HeLa Kyoto [1] (setting [5]) was -0.509; with HeLa Kyoto [1] (cell cycle stage: mitosis) it was 0.107. In addition, the melting temperature in the series with HeLa Kyoto [2] (cell cycle stage: mitosis) stood at 51.3 °C. Also, the “solubility change mitosis (log2)” value in the series on HeLa Kyoto [3] is 0.486. Also, the “solubility in G1/S (log2)” value in the series with HeLa Kyoto [4] is -0.529.
With “MAASGEPQRQWQEEVAAVVVVGSCMTDLVSLTSRLPKTGETIHGHKFFIGFGGKGANQCVQAARLGAMTSMVCKVGKDSFGNDYIENLKQNDISTEFTYQTKDAATGTASIIVNNEGQNIIVIVAGANLLLNTEDLRAAANVISRAKVMVCQLEITPATSLEALTMARRSGVKTLFNPAPAIADLDPQFYTLSDVFCCNESEAEILTGLTVGSAADAGEAALVLLKRGCQVVIITLGAEGCVVLSQTEPEPKHIPTEKVKAVDTTGAGDSFVGALAFYLAYYPNLSLEDMLNRSNFIAAVSVQAAGTQSSYPYKKDLPLTLF [RBKS]”, the thermal stability score is -2.59 in the series with HeLa Kyoto [1] (setting [5]) and -2.4 in the series with HeLa Kyoto [1] (cell cycle stage: mitosis). Further, the melting temperature is 57.9 °C in the series on HeLa Kyoto [2] (cell cycle stage: G1/S) and 54.8 °C in the series with HeLa Kyoto [2] (cell cycle stage: mitosis). Moreover, in the series with HeLa Kyoto [3], the “solubility change mitosis (log2)” value was -0.0848. Moreover, the “solubility in G1/S (log2)” value in the series with HeLa Kyoto [4] came out at 0.229.
